What was measured:
Settings in all cases: both partners purified
[1] = target: T1, human OX40 extracellular domain (recombinant, C-terminal His tag) (Homo sapiens); assay: ELISA; human OX40 variants coated on a 96-well plate; serially diluted antibody added for 2 h at 37 °C; detected with goat (Fab')2 anti-human IgG Fc (HRP)
T1 construct: OX40 (TNFRSF4, CD134), human, extracellular domain (four cysteine-rich domains CRD1-4); The deposited entries 8AG1 and 7YK4 hold the construct; also called hOX40; TNFRSF4; source: HEK293F, transient expression, purified (HisTrap, Superdex 200 gel filtration)
T1 chain: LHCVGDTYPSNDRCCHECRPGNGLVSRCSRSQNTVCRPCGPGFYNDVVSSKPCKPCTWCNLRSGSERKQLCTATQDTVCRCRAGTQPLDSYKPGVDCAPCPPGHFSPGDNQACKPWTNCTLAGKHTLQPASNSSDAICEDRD

[2] = target: T1, human OX40 extracellular domain …; assay: BLI; DF004 (10 μg/mL) loaded on protein A sensors; OX40 variants as two-fold serial dilutions in PBS with 1% BSA; association 120 s, dissociation up to 320 s; Octet K2
OX40-G70A = target: T2, OX40-G70A (human, UniProt P43489, G70A); assay: as above
T2 construct: OX40 (TNFRSF4), human, extracellular domain with G70A; Tag and host are told for recombinant OX40 in general, not for the variants by name; also called G70A variant of human OX40; source: HEK293F, transient expression, purified (told for recombinant human OX40 in general)

B1: DF004 (full antibody, IgG1) (antibody, V domains shown)
VH: QVQLQQSGPGLVKPSQTLSLTCAISGDSVSSNSVSWDWIRQSPSRGLEWLGRTYYRSKWYNEYAVSVESRITINPDTSKNQFSLQLNSVTPEDTAIYFCVRNDYFFDLWGRGTLVTVSS
VL: EIVLTQSPATLSLSPGERATLSCRASQSVGSYLAWYQQKPGQAPRLLIYDASNRATGIPARFSGSGSGTDFTLTISSLEPEDFAVYYCQQRSNWPPGYTFGQGTKLEIK
notes: VH of DF004, as in the heavy chain (VH-CH1) of m3; IgG1 constant region; as the light chain (VL-CL) of m3; IgG1; scFv clone from a yeast display library made from PBMCs of healthy human donors, variable fragments grafted onto IgG1 Fc; source: HEK293F, transient expression, purified from the expression medium (protein A column)
With B1 the EC50 [1] was about 0.09 nM, the Kd [2] was 4.39 nM and the “fold decrease of binding affinity against wild-type OX40 (kd value)” value (OX40-G70A) was about 32 fold.

Reference: paper PMC9496217, “Structural Basis of a Novel Agonistic Anti-OX40 Antibody” (Biomolecules, 2022)
